B1: GST–HCF-1rep1, wild type (HCF-1 residues 867–1071) [human] / Recombinant human O-linked β-N-acetylglucosamine transferase (OGT), wild type [human] (parent complex)
chain 1: PAVTTLVVKGTTGVTTLGTVTGTVSTSLAGAGGHSTSASLATPITTLGTIATLSSQVINPTAITVSAAQTTLTAAGGLTTPTITMQPVSQPTQVTLITAPSGVEAQPVHDLPVSILASPTTEQPTATVTIADSGQGDVQPGTVTLVCSNPPCETHETGTTNTATTTVVANLGGHPQPTQVQFVCDRQEAAASLVTSTVGQQNGSV
chain 2: MASSVGNVADSTGLAELAHREYQAGDFEAAERHCMQLWRQEPDNTGVLLLLSSIHFQCRRLDRSAHFSTLAIKQNPLLAEAYSNLGNVYKERGQLQEAIEHYRHALRLKPDFIDGYINLAAALVAAGDMEGAVQAYVSALQYNPDLYCVRSDLGNLLKALGRLEEAKACYLKAIETQPNFAVAWSNLGCVFNAQGEIWLAIHHFEKAVTLDPNFLDAYINLGNVLKEARIFDRAVAAYLRALSLSPNHAVVHGNLACVYYEQGLIDLAIDTYRRAIELQPHFPDAYCNLANALKEKGSVAEAEDCYNTALRLCPTHADSLNNLANIKREQGNIEEAVRLYRKALEVFPEFAAAHSNLASVLQQQGKLQEALMHYKEAIRISPTFADAYSNMGNTLKEMQDVQGALQCYTRAIQINPAFADAHSNLASIHKDSGNIPEAIASYRTALKLKPDFPDAYCNLAHCLQIVCDWTDYDERMKKLVSIVADQLEKNRLPSVHPHHSMLYPLSHGFRKAIAERHGNLCLDKINVLHKPPYEHPKDLKLSDGRLRVGYVSSDFGNHPTSHLMQSIPGMHNPDKFEVFCYALSPDDGTNFRVKVMAEANHFIDLSQIPCNGKAADRIHQDGIHILVNMNGYTKGARNELFALRPAPIQAMWLGYPGTSGALFMDYIITDQETSPAEVAEQYSEKLAYMPHTFFIGDHANMFPHLKKKAVIDFKSNGHIYDNRIVLNGIDLKAFLDSLPDVKIVKMKCPDGGDNADSSNTALNMPVIPMNTIAEAVIEMINRGQIQITINGFSISNGLATTQINNKAATGEEVPRTIIVTTRSQYGLPEDAIVYCNFNQLYKIDPSTLQMWANILKRVPNSVLWLLRFPAVGEPNIQQYAQNMGLPQNRIIFSPVAPKEEHVRRGQLADVCLDTPLCNGHTTGMDVLWAGTPMVTMPGETLASRVAASQLTCLGCLELIAKNRQEYEDIAVKLGTDLEYLKKVRGKVWKQRISSPLFNTKQYTMELERLYLQMWEHYAAGNKPDHMIKPVEVTESA

Variants of: B1
Assay: in vitro HCF-1rep1-OGT binding assay (OGT pull-down, quantified immunoblot); in the presence of UDP-GlcNAc; read off a plot

Variant	screen value
chain 1 P150A	~-1.7 log2 fold change
chain 1 C152A	~-0.55 log2 fold change
chain 1 E156A	~-1.1 log2 fold change
chain 1 T154A	~0.3 log2 fold change

Further lines, results first:

screen value	Variant
~-0.7 log2 fold change	chain 1 P151A
~-0.5 log2 fold change	chain 1 H155A
~-3 log2 fold change	chain 1 T157A

Source: paper PMC4549301 (2015)
